In article PMC11842806, “Molecular basis of foreign DNA recognition by BREX anti-phage immunity system” (Nature Communications, 2025):

T1: BrxX G785T/N823S (TRD variant) (Escherichia coli HS, UniProt P0DUF9 1-1205, G785T;N823S)
T1 sequence: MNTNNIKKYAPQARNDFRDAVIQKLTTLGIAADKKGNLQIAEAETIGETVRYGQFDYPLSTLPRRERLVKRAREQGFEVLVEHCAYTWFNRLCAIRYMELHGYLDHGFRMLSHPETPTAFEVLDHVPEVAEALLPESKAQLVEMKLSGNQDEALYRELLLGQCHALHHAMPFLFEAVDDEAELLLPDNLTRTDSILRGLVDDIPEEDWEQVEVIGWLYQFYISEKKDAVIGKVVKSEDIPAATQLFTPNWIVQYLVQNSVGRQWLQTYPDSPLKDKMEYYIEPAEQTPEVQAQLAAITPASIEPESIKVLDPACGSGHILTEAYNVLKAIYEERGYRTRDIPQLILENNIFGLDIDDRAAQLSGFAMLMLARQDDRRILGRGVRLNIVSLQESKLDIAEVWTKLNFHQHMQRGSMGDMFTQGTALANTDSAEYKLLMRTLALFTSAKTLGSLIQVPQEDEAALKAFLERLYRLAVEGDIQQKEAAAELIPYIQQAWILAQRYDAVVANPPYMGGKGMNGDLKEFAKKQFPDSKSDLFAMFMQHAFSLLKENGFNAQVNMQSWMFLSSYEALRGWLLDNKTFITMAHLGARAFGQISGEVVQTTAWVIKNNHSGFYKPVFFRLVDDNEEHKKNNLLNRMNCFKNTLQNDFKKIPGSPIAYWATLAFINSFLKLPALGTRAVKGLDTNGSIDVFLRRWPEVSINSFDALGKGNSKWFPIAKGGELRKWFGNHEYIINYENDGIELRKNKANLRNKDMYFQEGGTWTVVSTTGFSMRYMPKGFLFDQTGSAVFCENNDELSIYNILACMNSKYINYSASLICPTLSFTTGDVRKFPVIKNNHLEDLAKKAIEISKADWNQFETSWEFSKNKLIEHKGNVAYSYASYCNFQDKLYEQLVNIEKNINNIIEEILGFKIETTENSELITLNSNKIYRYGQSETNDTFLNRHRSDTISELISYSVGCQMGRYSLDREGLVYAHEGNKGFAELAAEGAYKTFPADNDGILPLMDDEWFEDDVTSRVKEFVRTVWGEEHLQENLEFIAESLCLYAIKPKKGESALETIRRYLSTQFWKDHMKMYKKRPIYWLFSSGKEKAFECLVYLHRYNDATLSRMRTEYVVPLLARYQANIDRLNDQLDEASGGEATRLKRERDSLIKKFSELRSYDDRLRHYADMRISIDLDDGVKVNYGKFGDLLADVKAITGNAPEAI


Target: T1, BrxX G785T/N823S (TRD variant)
Assay: EMSA; decreased affinity; EMSA: 20 nM Cy5-DNA, 0.5x TBE pH 8.0, 35 mM NaCl, 5% glycerol, +/-0.5 mM SAM or SAH, 30 min, room temperature; BLI: 20 mM Tris-HCl pH 8.0, 100 mM NaCl, 0.05 mg/mL BSA, 0.02% Tween-20, +/-0.5 mM SAM, 30 C
Conditions: protein: recombinant; tags: N-His6; label: 5'-Cy5 on strand 1; blunt

Row | Binder | binding result
1 | 40 bp BREX (dsDNA) DNA 1: TCAGTAGTCAAGTCAGTGGTAAGGTCAGGACAGGAGTCAG DNA 2: CTGACTCCTGTCCTGACCTTACCACTGACTTGACTACTGA | binds
2 | 40 bp BREX 4C (dsDNA) DNA 1: TCAGTAGTCAAGTCAGTGGTCAGGTCAGGACAGGAGTCAG DNA 2: CTGACTCCTGTCCTGACCTGACCACTGACTTGACTACTGA | binds
3 | 40 bp BREX 4G (dsDNA) DNA 1: TCAGTAGTCAAGTCAGTGGTGAGGTCAGGACAGGAGTCAG DNA 2: CTGACTCCTGTCCTGACCTCACCACTGACTTGACTACTGA | binds
4 | 40 bp BREX 4T (dsDNA) DNA 1: TCAGTAGTCAAGTCAGTGGTTAGGTCAGGACAGGAGTCAG DNA 2: CTGACTCCTGTCCTGACCTAACCACTGACTTGACTACTGA | binds
